Reference: US20140105889A1 (published 2014)

Molecular target: T1, human FcRn (human)
T1 construct: also called hFcRn; soluble human FcRn complexed with β2-microglobulin
Test: SPR (Biacore), pH 7.0, 25 C, antibody captured by Protein L, human FcRn as analyte
Protocol: A kinetic analysis of binding between human FcRn and the aforementioned antibodies was carried out using the Biacore T100 or T200 (GE Healthcare). The antibodies being tested were captured on the CM4 Sensor Chip (GE Healthcare) on which a suitable amount of Protein L (ACTIGEN) was suitably immobilized by amine coupling. Next, diluted human FcRn and a running buffer used as a blank were injected to allow the human FcRn to interact with the antibody captured on the sensor chip. A buffer consisting of 50 mmol/L sodium phosphate, 150 mmol/L NaCl and 0.05% (w/v) Tween 20 (pH 7.0 or pH 7.4) was used for the running buffer, and each buffer was also used to dilute the human FcRn. 10 mmol/L glycine-HCl (pH 1.5) was used to regenerate the sensor chip. All measurements of binding were carried out at 25° C. The KD(M) of each antibody to human FcRn was calculated based on kinetics parameters, i.e., the association rate constant ka (1/Ms) and the dissociation rate constant kd (1/s) calculated from a sensorgram obtained by the measurement. The Biacore T100 or T200 Evaluation Software (GE Healthcare) was used to calculate each parameter.

Binder | Kd [nM]
F1060 (antibody, human IgG1, kappa, name in EU numbering, copies: 2 + 2) heavy: QVQLQESGPGLVKPSETLSLTCAVSGHSISHDHAWSWVRQPPGEGLEWIGFISYSGITNYNPSLQGRVTISRDNSKNTLYLQMNSLRAEDTAVYYCARSLARTTAMDYWGEGTLVTVSSASTKGPSVFPLAPSSKSTSGGTAALGCLVKDYFPEPVTVSWNSGALTSGVHTFPAVLQSSGLYSLSSVVTVPSSSLGTQTYICNVNHKPSNTKVDKKVEPKSCDKTHTCPPCPAPELLGGPSVFLFPPKPKDTLYISRTPEVTCVVVDVSHEDPEVKFNWYVDGVEVHNAKTKPREEQYNSTYRVVSVLTVLHQDWLNGKEYKCKVSNKALPAPIEKTISKAKGQPREPQVYTLPPSRDELTKNQVSLTCLVKGFYPSDIAVEWESNGSPENNYKTTPPVLDSDGSFFLYSKLTVDKSRWQQGNVFSCSVMHEALHYHVTQKSLSLSP light: not shown | 143
F1078 (antibody, human IgG1, kappa, name in EU numbering, copies: 2 + 2) heavy: QVQLQESGPGLVKPSETLSLTCAVSGHSISHDHAWSWVRQPPGEGLEWIGFISYSGITNYNPSLQGRVTISRDNSKNTLYLQMNSLRAEDTAVYYCARSLARTTAMDYWGEGTLVTVSSASTKGPSVFPLAPSSKSTSGGTAALGCLVKDYFPEPVTVSWNSGALTSGVHTFPAVLQSSGLYSLSSVVTVPSSSLGTQTYICNVNHKPSNTKVDKKVEPKSCDKTHTCPPCPAPELLGGPSVFLFPPKPKDTLYISRTPEVTCVVVDVSHEDPEVKFNWYVDGVEVHNAKTKPREEQYNSTYRVVSVLTVLHQDWLNGKEYKCKVSNKALPAPIEKTISKAKGQPREPQVYTLPPSRDELTKNQVSLTCLVKGFYPSDIAVNWSSNGQPENNYKTTPPVLDSDGSFFLYSKLTVDKSRWQQGNVFSCSVMHEALHYHYTQKSLSLSP light: not shown | 470

The next binders have a lower Kd than those just listed; values first:

Kd [nM] | Binder
135 | F1072 (antibody, name in EU numbering, copies: 2 + 2) heavy: QVQLQESGPGLVKPSETLSLTCAVSGHSISHDHAWSWVRQPPGEGLEWIGFISYSGITNYNPSLQGRVTISRDNSKNTLYLQMNSLRAEDTAVYYCARSLARTTAMDYWGEGTLVTVSSASTKGPSVFPLAPSSKSTSGGTAALGCLVKDYFPEPVTVSWNSGALTSGVHTFPAVLQSSGLYSLSSVVTVPSSSLGTQTYICNVNHKPSNTKVDKKVEPKSCDKTHTCPPCPAPELLGGPSVFLFPPKPKDTLYISRTPEVTCVVVDVSHEDPEVKFNWYVDGVEVHNAKTKPREEQYNSTYRVVSVLTVLHQDWLNGKEYKCKVSNKALPAPIEKTISKAKGQPREPQVYTLPPSRDELTKNQVSLTCLVKGFYPSDIAVEWESNGQPENNYKTTPPVLDSDGSFFLYSKLTVDKSRWQQGNVFSCSVMHEALHYHVTQKELSLSP light: not shown
127 | F1076 (antibody, human IgG1, kappa, name in EU numbering, copies: 2 + 2) heavy: QVQLQESGPGLVKPSETLSLTCAVSGHSISHDHAWSWVRQPPGEGLEWIGFISYSGITNYNPSLQGRVTISRDNSKNTLYLQMNSLRAEDTAVYYCARSLARTTAMDYWGEGTLVTVSSASTKGPSVFPLAPSSKSTSGGTAALGCLVKDYFPEPVTVSWNSGALTSGVHTFPAVLQSSGLYSLSSVVTVPSSSLGTQTYICNVNHKPSNTKVDKKVEPKSCDKTHTCPPCPAPELLGGPDVFLFPPKPKDTLYISRTPEVTCVVVDVSHEDPEVKFNWYVDGVEVHNAKTKPREEQYNSTYRVVSVLTVLHQDWLNGKEYKCKVSNDAYPAPIEKTISKAKGQPREPQVYTLPPSRDELTKNQVSLTCLVKGFYPSDIAVEWESNGQPENNYKTTPPVLDSDGSFFLYSKLTVDKSRWQQGNVFSCSVMHEALHYHVTQKSLSLSP light: not shown
124 | F1071 (antibody, human IgG1, kappa, name in EU numbering, copies: 2 + 2) heavy: QVQLQESGPGLVKPSETLSLTCAVSGHSISHDHAWSWVRQPPGEGLEWIGFISYSGITNYNPSLQGRVTISRDNSKNTLYLQMNSLRAEDTAVYYCARSLARTTAMDYWGEGTLVTVSSASTKGPSVFPLAPSSKSTSGGTAALGCLVKDYFPEPVTVSWNSGALTSGVHTFPAVLQSSGLYSLSSVVTVPSSSLGTQTYICNVNHKPSNTKVDKKVEPKSCDKTHTCPPCPAPELLGGPSVFLFPPKPKDTLYISRTPEVTCVVVDVSHEDPEVKFNWYVDGVEVHNAKTKPREEQYNSTYRVVSVLTVLHQDWLNGKEYKCKVSNKALPAPIEKTISKAKGQPREPQVYTLPPSRDELTKNQVSLTCLVKGFYPSDIAVEWESNGQPENNYKTTPPVLDSDGSFFLYSKLTVDKSRWQQGNVFSCSVMHEALHYHVTSKSLSLSP light: not shown
